In the assay the target is Shiga toxin 2 (UniProt P09385).
Sequence of Shiga toxin 2 (P09385 23-319, chain 1 of 2): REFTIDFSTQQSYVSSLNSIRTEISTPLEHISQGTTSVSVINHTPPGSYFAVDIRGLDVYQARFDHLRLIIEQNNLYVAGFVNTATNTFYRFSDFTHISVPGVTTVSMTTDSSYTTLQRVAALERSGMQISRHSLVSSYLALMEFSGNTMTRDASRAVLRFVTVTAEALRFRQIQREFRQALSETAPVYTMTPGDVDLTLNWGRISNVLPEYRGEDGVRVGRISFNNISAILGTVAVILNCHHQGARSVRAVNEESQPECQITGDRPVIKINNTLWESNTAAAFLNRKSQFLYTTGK
Sequence of Shiga toxin 2 (P09386 20-89, chain 2 of 2, further chain): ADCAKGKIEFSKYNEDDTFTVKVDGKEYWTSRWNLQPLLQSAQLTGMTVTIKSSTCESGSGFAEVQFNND

Regarding “NAB815 (OA-Dab-Thr-DThr-cy[Dab-Dab-DPhe-Leu-Abu-Dab-Thr-]) (peptide)”, the equilibrium dissociation constant (Kd) came to 5 nM and the maximum reduction of fluorescence emission was determined as 10%.

Values taken from patent publication US20230053129A1.
